We go through 2 molecules from US5563039, “TNF receptor-associated intracellular signaling proteins and methods of use” (Tularik, Inc., dated 1996).

The target of experiment [1] is cytoplasmic domain of Fas antigen expressed as GAL4bd chimera (yeast, UniProt P04386). Put plainly: yeast two-hybrid, strain SFY526.
In experiment [2] the target is GST fusion protein containing the cytoplasmic domain of Fas antigen (Homo sapiens (Human), UniProt P25445). The experiment in a line: GST pull-down of 35S-labeled TRADD.

B1: GAL4ad-TRADD (GAL4 activation domain fused to full length TRADD) (other)
chain: MAAGQNGHEEWVGSAYLFVESSLDKVVLSDAYAHPQQKVAVYRALQAALAESGGSPDVLQMLKIHRSDPQLIVQLRFCGRQPCGRFLRAYREGALRAALQRSLAAALAQHSVPLQLELRAGAERLDALLADEERCLSCILAQQPDRLRDEELAELEDALRNLKCGSGARGGDGEVASAPLQPPVPSLSEVKPPPPPPPAQTFLFQGQPVVNRPLSLKDQQTFARSVGLKWRKVGRSLQRGCRALRDPALDSLAYEYEREGLYEQAFQLLRRFVQAEGRRATLQRLVEALEENELTSLAEDLLGLTDPNGGLA
As for B1, in experiment [1], the binding result is “no binding”.

B2: 35S-labeled TRADD prepared by in vitro transcription and translation (other)
chain: B1 chain
modifications: 35S-labeled
With B2, in experiment [2], the binding result was “no binding”.
